According to patent US20120237528A1 (Janssen / Centocor, published 2012):
Residue numbers refer to the chain shown, from its start. Numbers in names are those of the source. Where two headings read alike, the source gives them in different places. Each block holds one binder with its values, some of them ahead of it.

Experiments:
[1] = molecular target: Innovin, lyophilized recombinant human tissue factor combined with phospholipids (human, UniProt P13726 33-295, limits assumed); assay: cell-based or functional assay
[2] = molecular target: T1, recombinant human FcγIIIa receptor (human, UniProt P08637 17-208, limits assumed); assay: cell-based or functional assay
T1 sequence (P08637 17-208 limits assumed): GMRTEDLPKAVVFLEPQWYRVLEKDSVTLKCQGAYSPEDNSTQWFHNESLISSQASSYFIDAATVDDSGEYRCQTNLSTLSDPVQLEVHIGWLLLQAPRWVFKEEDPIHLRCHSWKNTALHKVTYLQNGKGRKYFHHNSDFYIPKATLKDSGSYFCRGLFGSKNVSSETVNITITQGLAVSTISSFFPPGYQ

[3] = molecular target: T1, recombinant human FcγIIIa receptor; assay: Fc receptor binding assay (method of a co-pending application or Biacore)
[4] = molecular target: T1, recombinant human FcγIIIa receptor; assay: Fc receptor binding assay
[5] = molecular target: T2, recombinant extracellular domain (ECD) of human TF, amino acid 1-219 of the mature chain, C-terminal His6-tag (human, UniProt P13726 33-251); assay: Biacore
T2 construct: expressed in a mammalian system; used for ELISA and Biacore; biotinylated by NHS-ester for the Fab ELISA; also called His6-TF-ECD1-219; HumanTF1-219

[6] = molecular target: T3, Cynomolgous monkey (cyno) TF-ECD with His Tag (cynomolgus monkey, UniProt P13726 33-251 (human entry)); assay: Biacore
T3 construct: also called cyno antigen
T3 chain: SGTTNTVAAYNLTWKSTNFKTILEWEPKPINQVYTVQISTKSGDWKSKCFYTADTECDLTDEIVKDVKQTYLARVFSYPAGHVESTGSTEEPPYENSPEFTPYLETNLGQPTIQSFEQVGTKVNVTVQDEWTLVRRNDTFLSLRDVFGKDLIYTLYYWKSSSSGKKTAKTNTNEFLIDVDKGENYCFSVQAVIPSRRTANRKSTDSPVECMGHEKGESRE

[7] = molecular target: T4, endogenous human tissue factor on MDA-MB-231 breast cancer cells (human, UniProt P13726 33-295); assay: cell-based or functional assay
[8] = molecular target: T4, endogenous human tissue factor on …; assay: cell-based or functional assay; remark: listed apart in the source
[9] = molecular target: T4, endogenous human tissue factor on …; assay: cell-based or functional assay; remark: listed apart in the source
[10] = molecular target: T4, endogenous human tissue factor on …; assay: FACS on MDA-MB-231 cells
Procedure: This assay is used to detect the direct binding of antibody to endogenouse human TF expressed in breast cancer cells. Prepare four point titrations of the test mAbs in FACS buffer (1% FBS in PBS) in duplicate. Start a titration at 1,000 ng/ml with 1:4 dilutions. […] Unstained cells and secondary antibody, Cy-5 conjugated Goat anti-Human IgG Fc antibody in FACS buffer 1:200, is used as controls and prepared immediately before use.
Using standard tissue culture technique, rinse adherent MDA-MB-231 cells in culture flask with once with PBS (w/o Ca+2/Mg+2). Lift cells with Versene and count the cells and seed 200,000 cells per well in a polystyrene V-bottom plate. FACS Analysis Protocol: Tissue Factor Binding. Pellet the cells in a Allegra X-15R centrifuge at 450×g for 3 minutes at 4° C., resuspend in FACS Buffer (2% FBS in PBS) and plate 200,000 cells per well in 200 uL. Pellet cells at 450×g for 3 minutes at 4° C. Discard supernatants and add 100 uL/well test or control mAbs to designated wells and incubate on ice or at 4° C. for 1 hour (+/−10 minutes). Pellet cells at 450×g for 3 minutes at 4° C. Discard supernatants and wash cells once in FACS buffer. Resuspend cells in 200 uL/well FACS buffer and pellet cells at 450×g for 3 minutes at 4° C. Discard supernatants and add 100 uL/well secondary antibody to designated wells (triterate), and incubate on ice for 1 hour (+/−10 minutes). Pellet cells at 450×g for 3 minutes at 4° C. Discard supernatants and wash cells 2 times in FACS buffer before resuspending the cells in 200 uL/well FACS Buffer (triterate). Pellet cells at 450×g for 3 minutes at 4° C. Discard supernatant and resuspend cells in 100 uL/well CytoFix Buffer. Analyze reactions by flow cytometry (BD FACSArray). The FlowJo Software is used for FACS data analysis by gating the main population of cells in the unstained control well and applying the gate to the whole data set. The data is exported as a table of the geometric mean fluorescence intensity (MFI) in the red channel for the applied gate.

[11] = molecular target: T2, recombinant extracellular domain (ECD) …; assay: TF-ECD binding ELISA, chemiluminescent
[12] = molecular target: T3, Cynomolgous monkey (cyno) TF-ECD with …; assay: TF-ECD binding ELISA, chemiluminescent
[13] = molecular target: T2, recombinant extracellular domain (ECD) …; assay: Biacore; remark: listed apart in the source
[14] = molecular target: T2, recombinant extracellular domain (ECD) …; assay: Biacore; remark: listed apart in the source
[15] = molecular target: T2, recombinant extracellular domain (ECD) …; assay: Biacore, KD compared with the reference (0.56 nM, the value of M1 in Table 5)

T½ Max (seconds), coagulation of human plasma [1]: 164 s
EC50 (read off the curve) [2]: ~0.02 µg/mL
Kd [3]: 210 nM
B1: M1593 (wild-type human IgG1/kappa constant domains) (antibody)
heavy: not shown
light: DIVMTQTPLSLPVTPGEPASISCKSSQSLLSSGNQKNYLTWYLQKPGQSPQLLIYWASTRESGVPDRFSGSGSGTDFTLKISRVEAEDVGVYYCQNDYTYPLTFGQGTKLEIKRTVAAPSVFIFPPSDEQLKSGTASVVCLLNNFYPREAKVQWKVDNALQSGNSQESVTEQDSKDSTYSLSSTLTLSKADYEKHKVYACEVTHQGLSSPVTKSFNRGEC
notes: produced in unmodified CHO; also called H171/L3; copies: 2 + 2

fold tighter binding than the unmodified IgG1 M1593 [4]: 18 fold
EC50 (read off the curve) [2]: ~0.006 µg/mL
Kd [3]: 12 nM
B2: M1593-LF (hIgG1 produced in host subline producing reduced fucosylation in glycans) (antibody)
heavy: not shown
light: B1 light
modifications: glycan with low fucose content (less than 10% fucosylated)
notes: same chains as M1593 (IgG1/Kappa), made in a low-fucose CHO subline; copies: 2 + 2

fold tighter binding than the unmodified IgG1 M1593 [4]: 40 fold
EC50 (read off the curve) [2]: ~0.005 µg/mL
Kd [3]: 5 nM
B3: M1593-DE (hIgG1 with S239D/I332E) (antibody)
heavy: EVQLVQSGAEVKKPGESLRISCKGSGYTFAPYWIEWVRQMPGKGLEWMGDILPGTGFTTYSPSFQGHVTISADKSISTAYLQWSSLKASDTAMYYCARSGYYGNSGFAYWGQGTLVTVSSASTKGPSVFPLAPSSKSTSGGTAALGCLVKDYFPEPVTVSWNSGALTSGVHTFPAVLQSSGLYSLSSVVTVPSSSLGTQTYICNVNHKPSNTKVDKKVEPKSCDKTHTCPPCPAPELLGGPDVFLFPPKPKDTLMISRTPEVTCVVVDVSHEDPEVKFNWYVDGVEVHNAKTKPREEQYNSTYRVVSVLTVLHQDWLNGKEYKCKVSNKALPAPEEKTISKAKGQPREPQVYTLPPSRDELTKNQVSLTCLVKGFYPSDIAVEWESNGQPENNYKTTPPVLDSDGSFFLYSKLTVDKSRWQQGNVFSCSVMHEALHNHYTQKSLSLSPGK
light: B1 light
notes: copies: 2 + 2

Kd [5]: 0.56 nM
Kd [6]: 1.34 nM
IL-8 Induction, Ave % inhibition [7]: 106%
T½ Max (seconds), coagulation of human plasma [1]: 173 s
% IL-8 Inhibition [8]: 96.1%
IC50 (ug/ml), IL-8 induction assay [9]: 0.527 µg/mL
Whole Cell Binding, Ave % [10]: 101%
EC50 (read off the curve) [2]: ~0.07 µg/mL
EC50 [11]: 11.7 ng/mL
EC50 [12]: 0.0173 µg/mL
B4: M1, 10H10 mouse-human chimera (antibody, V domains shown)
VH: QVHLQQSGAELMKPGASVKISCKASGYTFITYWIEWVKQRPGHGLEWIGDILPGSGSTNYNENFKGKATFTADSSSNTAYMQLSSLTSEDSAVYYCARSGYYGNSGFAYWGQGTLVTVSA
VL: DIVMTQSPSSLTVTAGEKVTMSCKSSQSLLSSGNQKNYLTWYQQIPGQPPKLLIYWASTRESGVPDRFTGSGSGTDFTLTINSVQAEDLAVYYCQNDYTYPLTFGAGTKLELK
notes: also called H13/L1; parent chimeric antibody

Kd [6]: 1.28 nM
IL-8 Induction, Ave % inhibition [7]: 103%
T½ Max (seconds), coagulation of human plasma [1]: 169 s
% IL-8 Inhibition [8]: 83.8%
IC50 (ug/ml), IL-8 induction assay [9]: 0.382 µg/mL
EC50 [11]: 8.8 ng/mL
EC50 [12]: 0.0187 µg/mL
B5: M59 (antibody, V domains shown)
VH: EVQLVQSGAEVKKPGESLRISCKGSGYTFITYWIEWVRQMPGKGLEWMGDILPGSGSTNYSPSFQGHVTISADKSISTAYLQWSSLKASDTAMYYCARSGYYGNSGFAYWGQGTLVTVSS
VL: DIVMTQTPLSLPVTPGEPASISCKSSQSLLSSGNQKNYLTWYLQKPGQSPQLLIYWASTRESGVPDRFSGSGSGTDFTLKISRVEAEDVGVYYCQNDYTYPLTFGQGTKLEIK
notes: FR4 is its own entry; also called H22/L3

fold lower KD than the murine parent MAb (M1) [13]: 2.5 fold
Kd [5]: 0.21 nM
Kd [6]: 1.71 nM
Kd [14]: 0.2 nM
koff [14]: 1.9e-05 s⁻¹
kon [14]: 94100 M⁻¹ s⁻¹
IL-8 Induction, Ave % inhibition [7]: 112%
T½ Max (seconds), coagulation of human plasma [1]: 186 s
% IL-8 Inhibition [8]: 107%
Whole Cell Binding, Ave % [10]: 111%
EC50 [11]: 8.3 ng/mL
EC50 [12]: 0.0241 µg/mL
fold lower KD than the murine parent MAb [15]: 2.5 fold
B6: M61 (antibody, V domains shown)
VH: B5 VH
VL: B5 VL with P12S, E17Q, S49P
notes: complete MAb; FR4 is its own entry; also called H22/L5
